T1: human CC chemokine receptor 4 (CCR4) (human, UniProt P51679 1-360)
T1 construct: whole, on cells; Always presented on cells; also called CD194; human CCR4
T1 sequence (looked up): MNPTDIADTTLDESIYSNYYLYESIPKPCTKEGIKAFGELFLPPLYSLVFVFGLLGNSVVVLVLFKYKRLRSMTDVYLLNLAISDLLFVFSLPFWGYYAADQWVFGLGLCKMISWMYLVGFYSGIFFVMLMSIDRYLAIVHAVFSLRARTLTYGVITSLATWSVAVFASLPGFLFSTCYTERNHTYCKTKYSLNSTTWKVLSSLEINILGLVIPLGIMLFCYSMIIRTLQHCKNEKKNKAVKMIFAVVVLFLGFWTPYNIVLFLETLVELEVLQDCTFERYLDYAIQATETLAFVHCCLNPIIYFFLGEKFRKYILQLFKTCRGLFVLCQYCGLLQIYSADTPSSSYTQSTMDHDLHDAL

T2: mouse CCR4 (mouse, UniProt P51680 1-360)
T2 construct: whole, on cells; also called murine CCR4
T2 sequence (looked up): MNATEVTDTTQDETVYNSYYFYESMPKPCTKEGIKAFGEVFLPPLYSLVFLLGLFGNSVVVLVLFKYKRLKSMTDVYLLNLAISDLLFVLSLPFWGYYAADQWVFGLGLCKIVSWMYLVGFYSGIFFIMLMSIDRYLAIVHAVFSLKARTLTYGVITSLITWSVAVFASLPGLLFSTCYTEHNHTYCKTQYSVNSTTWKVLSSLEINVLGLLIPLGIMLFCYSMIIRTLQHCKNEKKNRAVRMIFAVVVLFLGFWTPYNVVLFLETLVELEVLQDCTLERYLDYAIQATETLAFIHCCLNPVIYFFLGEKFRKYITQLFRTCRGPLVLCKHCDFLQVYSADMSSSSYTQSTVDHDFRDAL

T3: monkey (Macaca mulatta) CCR4 (monkey (Macaca mulatta), UniProt F7GUA3 1-360)
T3 construct: also called monkey CCR4
T3 sequence: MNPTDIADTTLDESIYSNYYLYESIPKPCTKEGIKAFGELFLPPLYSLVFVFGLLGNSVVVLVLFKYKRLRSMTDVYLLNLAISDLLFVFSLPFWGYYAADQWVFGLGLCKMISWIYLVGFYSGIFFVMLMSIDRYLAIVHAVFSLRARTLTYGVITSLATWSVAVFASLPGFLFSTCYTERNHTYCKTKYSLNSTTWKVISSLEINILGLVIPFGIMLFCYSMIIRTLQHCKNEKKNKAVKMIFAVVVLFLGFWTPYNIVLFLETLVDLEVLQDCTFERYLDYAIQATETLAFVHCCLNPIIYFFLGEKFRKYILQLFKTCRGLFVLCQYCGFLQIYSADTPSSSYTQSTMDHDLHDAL


Tests used:
[1] = biological target: T1, human CC chemokine receptor 4 (CCR4); experiment: flow cytometry competition; antibody titrated, competitor biotinylated TARC; cell line not given
Method: The cells were harvested from culture flasks, washed 2 times with PBS (400×g, 5 min, 4° C.) and resuspended in PBS containing 0.2% BSA and 0.09% NaN3. 1×10^5 cells per well were aliquoted into V-shaped 96-well plates (Greiner Bio-One, Frikenhausen, Germany). Cells were centrifuged (400×g, 5 min, 4° C.) and resuspended in 50 μl IgG, single chain or unlabeled ligand (1:10 dilution series starting on 100/500/26, 4 μg/ml) mixed with a fixed concentration of biotinylated ligand (10 or 20 nM, see legend to FIG. 24). The cells were incubated for 2 hours at 4° C. and mixed with a pipette every 45 min. The cells were washed three times with 150 μl PBS with 0.2% BSA and 0.09% NaN3 and stained with 3 μg/ml streptavidin PE (BD Biosciences) for 45 minutes at 4° C. Cells were washed, resuspended in 200 μl PBS with 0.2% BSA and 0.09% NaN3, and transferred to a U-shaped 96 well Costar (Corning, Schiphol-Rijik, The Netherlands) plate for flow cytometry using an FACS Canto II flow cytometer (BD Biosciences, Heidelberg, Germany). […] Apparent binding affinities (KD) were calculated according to the following equation derived from previously described methods (Kipriyanov et al, 1997b; Schodin & Kranz, 1993): […]

[2] = biological target: T2, mouse CCR4; experiment: flow cytometry on HEK-293T/17 cells transiently transfected with mouse CCR4, anti-human-IgG-PE detection
Method: (§1) For transient transfection, Hek293T/17 cells were seeded as 2×10^6 cells in a T75 (NUNC) flask. 48 h after seeding, the cells were transfected with Fugene (ROCHE). 40 μl Fugene and 16 μg DNA are used per T75. The cells were used for assays 48 h after transfection.
(§2) HEK-293T/17 cells, were transiently transfected either with pcDNA3.1 plasmid encoding human CCR4 or with pLNO plasmids (Norderhaug et al, 1997) encoding either mouse (GeneBank CAA62372) or monkey (Macaca mulatta) CCR4 (PubMed access number XP_001098807) using Fugene (Roche) as a transfection reagent. Non-transfected (CCR4 negative) cells served as a negative control. The cells were cultivated further for 48 hours under regular conditions described above. The cells were washed twice with PBS, detached from the culture flasks by incubating with Accutase (PAA laboratories, Linz, Austria) for 3 minutes at room temperature. The cells were then washed 2 times with PBS (400×g, 5 min, 4° C.) and resuspended in PBS containing 0.2% BSA and 0.09% NaN₃. 1×10⁵ cells per well were aliquoted into V-shaped 96-well plates (Griner Bio-One, Frikenhausen, Germany). Cells were centrifuged (400×g, 5 min, 4° C.) and resuspended in 50 μl of 10 μg/ml 9E or 9E10J, in PBS containing 0.2% BSA and 0.09% NaN3. The cells were incubated further at 4° C. for 60 min. The samples were then washed twice by centrifugation and re-suspension in 100 μl FACS buffer. […]

[3] = biological target: T3, monkey (Macaca mulatta) CCR4; experiment: flow cytometry, 10 µg/ml antibody on HEK-293T/17 cells transiently transfected with monkey CCR4, anti-human-IgG-PE
Method: as §1, §2

Row | IC50 [1] [nM] | binding result [2] | binding result [3] | Binder
1 | 2.5 | no binding (tested: 10 µg/ml) | binds | 9E10J IgG (full length human IgG1, lambda) (antibody, V domains shown, also called IgG 9E10J; unmodified 9E10J) VH: QVQLVQSGAEVKKPGSSVKVSCKASGGTFSSYAISWVRQAPGQGLEWMGGIIPIFGTANYAQKFQGRVTMTRDTSTSTVYMELSSLRSEDTAVYYCARRGGSYFDYWGQGTLVTVSS VL: SYVLTQPPSASGTPGQSVTISCSGSTSNIGSHYVFWYQQLPGTAPRLLIYRNHQRPSGVPDRLSGSKSGTSASLAISGLRSEDEADYYCAVWDDTLSGWVFGGGTKLTVLG
2 | 12.5 | no binding (tested: 10 µg/ml) | binds | 9E IgG (full length human IgG1, lambda) (antibody, V domains shown, also called IgG 9E; IgG1 9E) VH: QVQLVQSGAEVKKPGSSVKVSCKASGGTFSNYAISWVRQAPGQGLEWMGGIIPIFGTANYAQKFQGRVTITADESTSTAYMELSSLRSEDTAVYYCARRGGSYFDYWGQGTLVTVSS VL: SYVLTQPPSASGTPGQSVTISCSGSTSNIGSHYVFWYQQLPGTAPRLLIYRNHQRPSGVPDRLSGSKSGTSASLAISGLRSEDEADYYCAVWDDTLSGWVFGGGTKLTVLG
